Reference: patent US20200308257A1 (VISTERRA, published 2020)

Tests used:
Experiment in all cases: cell-based or functional assay
[1] = target: T1, hemagglutinin (HA) of influenza A/PR/8/1934 (H1N1) (influenza A virus (H1N1), UniProt P03452 18-565)
[2] = target: hemagglutinin (HA) of influenza A/South Africa/80837/2017 (H1N1) (influenza A virus (H1N1))
[3] = target: hemagglutinin (HA) of influenza A/South Africa/80836/2017 (H1N1) (influenza A virus (H1N1))
[4] = target: hemagglutinin (HA) of influenza A/South Africa/80860/2017 (H1N1) (influenza A virus (H1N1))
[5] = target: hemagglutinin (HA) of influenza A/South Africa/80811/2017 (H1N1) (influenza A virus (H1N1))
[6] = target: hemagglutinin (HA) of influenza A/South Africa/80308/2017 (H3N2) (influenza A virus (H3N2))
[7] = target: hemagglutinin (HA) of influenza A/South Africa/80839/2017 (H3N2) (influenza A virus (H3N2))
[8] = target: hemagglutinin (HA) of influenza A/South Africa/81130/2017 (H3N2) (influenza A virus (H3N2))
[9] = target: T1, hemagglutinin (HA) of influenza …; remark: listed apart in the source
[10] = target: hemagglutinin (HA) of influenza A/South Africa/0808006/2018 (H1N1) (influenza A virus (H1N1))
[11] = target: hemagglutinin (HA) of influenza A/South Africa/80714/2017 (H3N2) (influenza A virus (H3N2))
[12] = target: hemagglutinin (HA) of influenza A/South Africa/80521/2017 (H3N2) (influenza A virus (H3N2))
[13] = target: hemagglutinin (HA) of influenza A/South Africa/80919/2017 (H3N2) (influenza A virus (H3N2))
[14] = target: hemagglutinin (HA) of influenza A/South Africa/80316/2017 (H3N2) (influenza A virus (H3N2))
[15] = target: hemagglutinin (HA) of influenza A/South Africa/81313/2017 (H3N2) (influenza A virus (H3N2))

T1 sequence (P03452 18-565 limits assumed): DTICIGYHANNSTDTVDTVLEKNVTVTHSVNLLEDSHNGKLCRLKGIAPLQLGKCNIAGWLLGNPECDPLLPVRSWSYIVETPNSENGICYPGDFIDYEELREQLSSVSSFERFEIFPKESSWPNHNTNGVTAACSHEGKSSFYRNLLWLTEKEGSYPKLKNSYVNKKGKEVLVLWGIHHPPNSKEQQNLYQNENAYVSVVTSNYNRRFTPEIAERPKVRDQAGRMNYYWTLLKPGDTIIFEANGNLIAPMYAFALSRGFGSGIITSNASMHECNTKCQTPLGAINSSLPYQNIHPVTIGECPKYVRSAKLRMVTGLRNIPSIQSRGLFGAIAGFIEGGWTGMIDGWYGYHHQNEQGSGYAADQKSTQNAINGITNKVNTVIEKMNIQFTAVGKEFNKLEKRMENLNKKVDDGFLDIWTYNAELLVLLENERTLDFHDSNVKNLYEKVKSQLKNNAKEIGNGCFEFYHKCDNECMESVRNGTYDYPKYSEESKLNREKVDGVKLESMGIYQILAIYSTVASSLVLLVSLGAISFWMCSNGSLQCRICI

B1: VIS410 (antibody, V domains shown)
VH: QVQLLETGGGLVKPGQSLKLSCAASGFTFTSYAMHWVRQPPGKGLEWVAVVSYDGNYKYYADSVQGRFTISRDNSKNTLYLQMNSLRAEDTAVYYCAKDSRLRSLLYFEWLSQGYFNPWGQGTTLTVSS
VL: DIQMTQSPSSLSASVGDRVTITCRSSQSITFDYKNYLAWYQQKPGKAPKLLIYWGSYLESGVPSRFSGSGSGTDFTLTISSLQPEDFATYYCQQHYRTPPSFGQGTKVEIK
[1]
  EC50, antiviral activity against wild-type A/PR/8/1934 (H1N1) virus: 7.4 nM
[2]
  IC50, phenotypic IC50 assay (virus infection of MDCK cells): 0.25 µg/mL
[3]
  IC50, phenotypic IC50 assay (virus infection of MDCK cells): 0.73 µg/mL
[4]
  IC50, phenotypic IC50 assay (virus infection of MDCK cells): 0.26 µg/mL
[5]
  IC50, phenotypic IC50 assay (virus infection of MDCK cells): 0.38 µg/mL
[6]
  IC50, phenotypic IC50 assay (virus infection of MDCK cells): 0.91 µg/mL
[7]
  IC50, phenotypic IC50 assay (virus infection of MDCK cells): 0.41 µg/mL
[8]
  IC50, phenotypic IC50 assay (virus infection of MDCK cells): 1 µg/mL
[9]
  IC50 (µg/mL), baloxavir-sensitive A/Puerto Rico/8/1934_H1N1 WT virus: 0.3 µg/mL
[10]
  IC50, phenotypic IC50 assay (virus infection of MDCK cells): 0.42 µg/mL
[11]
  IC50, phenotypic IC50 assay (virus infection of MDCK cells): 0.13 µg/mL
[12]
  IC50, phenotypic IC50 assay (virus infection of MDCK cells): 1.09 µg/mL
[13]
  IC50, phenotypic IC50 assay (virus infection of MDCK cells): 2.55 µg/mL
[14]
  IC50, phenotypic IC50 assay (virus infection of MDCK cells): 0.57 µg/mL
[15]
  IC50, phenotypic IC50 assay (virus infection of MDCK cells): 1.38 µg/mL
